Test results from the supplement of paper PMC7877785.
± gives the uncertainty stated by the source.

Test: self-splicing fitness, log relative to wild type (ln ratio); higher = more splicing; Tetrahymena group I intron in knt gene, E. coli kanamycin selection, DiMSum; sequences stand for … in CUCUCU…GGAGGGAAAAGUUAUCAGGCAUGCACCUGGUAGCUAGUCUUUAAACCAAUAGAUUGCAUCGGUUUAAAAGGCAAGACCGUCAAAUUGCGGGAAAGGGGUCAACAGCCGUUCAGUACCAAGUCUCAGGGGAAACUUUGAGAUGGCCUUGCAAAGGGUAUGGUAAUAAGCUGACGGACAUGGUCCUAACCACGCAGCCAAGUCCUAAGUCAACAGAUCUUCUGUUGAUAUGGAUGCAGUUCACAGACUAAAUGUCGGUCGGGGAAGAUGUAUUCUUCUCAUAAGAUAUAGUCGGACCUCUCCUUAAUGGGAGCUAGCGGAUGAAGUGAUGCAACACUGGAGCCGCUGGGAACUAAUUUGUAUGCGAAAGUAUAUUGAUUAGUUUUGGAGUACUCGUGGUCG
Procedure, shortened: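 Six replicate transformations of E. coli BL21(DE3) with a pET-22b(+) library were grown overnight at 37°C or 30°C. The library randomised all eight P1ex-region intron nucleotides, the intron lying in the knt kanamycin-resistance gene, and plates were LB agar with or without 25 μg/mL kanamycin plus 100 μg/mL carbenicillin, 50 μM IPTG and 0.2% rhamnose. Pooled colonies were amplicon-sequenced on an Illumina HiSeq 2500, and fitness is the DiMSum error-weighted combination of wild-type-normalised replicate fold changes, kanamycin versus none.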

Sequence | self-splicing fitness (ln) (30 °C) | self-splicing fitness (ln) (37 °C)
CGACAGCAAUAUUACGGUUG | -3.3 ± 0.13 | -2.84 ± 0.18
UUGGAGCAAUAUUACGAAUU | -1.68 ± 0.31 | -0.925 ± 0.41
UUGAAGCAAUAUUACGGCCC | -3.04 ± 0.4 | -0.425 ± 0.2
UAUAAGCAAUAUUACGGAAU | -2.37 ± 0.22 | -0.6 ± 0.16
CAUCAGCAAUAUUACGUAUG | -2.16 ± 0.14 | -1.43 ± 0.15
UAGAAGCAAUAUUACGGCCU | -0.838 ± 0.12 | -1.15 ± 0.15
CUACAGCAAUAUUACGUUAC | -4.4 ± 0.26 | -3.72 ± 0.33
UCCGAGCAAUAUUACGGGCA | -1.79 ± 0.12 | -0.787 ± 0.1
GCUAAGCAAUAUUACGGAGC |  | -2.4 ± 0.34
UUUCAGCAAUAUUACGUCCA | -0.967 ± 0.14 | 0.0389 ± 0.16
GACUAGCAAUAUUACGUGUC | -2.59 ± 0.42 | 
ACCUAGCAAUAUUACGGAUU | -1.23 ± 0.072 | 0.134 ± 0.088
GCAGAGCAAUAUUACGAAAG | -2.9 ± 0.16 | -3.24 ± 0.26
CAGCAGCAAUAUUACGCUCA | -0.65 ± 0.085 | -0.0891 ± 0.11
GUCUAGCAAUAUUACGUACC | -0.591 ± 0.29 | -0.721 ± 0.3
CUGGAGCAAUAUUACGGUCG | -1.2 ± 0.087 | -0.266 ± 0.12
ACUAAGCAAUAUUACGCAUU | -1.82 ± 0.11 | -0.321 ± 0.12
AUAAAGCAAUAUUACGUCUA | 0.308 ± 0.078 | 0.497 ± 0.099
ACCCAGCAAUAUUACGACUU | 0.148 ± 0.042 | 0.908 ± 0.062
UUGCAGCAAUAUUACGUGCA | -2.15 ± 0.13 | -1.27 ± 0.12
CCUAAGCAAUAUUACGUGUU | -3.2 ± 0.14 | -3.07 ± 0.19
ACCGAGCAAUAUUACGAAAU | -2.68 ± 0.27 | -2.76 ± 0.34
GCCCAGCAAUAUUACGUAAU | -0.747 ± 0.06 | -0.32 ± 0.067
CUGUAGCAAUAUUACGAAAU | -3.22 ± 0.23 | -2.54 ± 0.26
CUCCAGCAAUAUUACGAGAA | -2.14 ± 0.38 | -1.91 ± 0.31

Sequence | self-splicing fitness (ln) (30 °C) | self-splicing fitness (ln) (37 °C)
UACUAGCAAUAUUACGACGA | -0.687 ± 0.058 | -0.172 ± 0.066
AGCGAGCAAUAUUACGUGGC | -4.97 ± 0.31 | -2.46 ± 0.2
CCGUAGCAAUAUUACGUUUA | -3.43 ± 0.44 | -3.04 ± 0.4
AACGAGCAAUAUUACGCACA | -2.86 ± 0.23 | -2.09 ± 0.21
AUUUAGCAAUAUUACGGUGC | -4.12 ± 0.46 | -1.55 ± 0.23
UGCAAGCAAUAUUACGUGCA | -3.02 ± 0.21 | -3.18 ± 0.35
AAACAGCAAUAUUACGCCAU | -3.26 ± 0.17 | -2.42 ± 0.18
GUCUAGCAAUAUUACGUUAU | -0.954 ± 0.061 | -0.704 ± 0.055
UAAAAGCAAUAUUACGGCGG | -0.373 ± 0.078 | -0.0776 ± 0.11
GCGUAGCAAUAUUACGUCUA | -1.06 ± 0.22 | -0.924 ± 0.15
AUAGAGCAAUAUUACGAAUC | -3.82 ± 0.25 | -2.63 ± 0.3
AAAAAGCAAUAUUACGGGAC | -1.94 ± 0.098 | -0.477 ± 0.11
GGCGAGCAAUAUUACGAAUU | -1.66 ± 0.14 | -0.459 ± 0.17
UUACAGCAAUAUUACGCUAA | -2.01 ± 0.13 | -0.87 ± 0.11
GAGUAGCAAUAUUACGCAAU |  | -2.34 ± 0.31
UGCCAGCAAUAUUACGCGUC | -2.05 ± 0.12 | -1.8 ± 0.15
GUUUAGCAAUAUUACGUUUG | -3.92 ± 0.33 | -1.45 ± 0.21
CAACAGCAAUAUUACGACUU | -0.591 ± 0.058 | -0.268 ± 0.074
CCCAAGCAAUAUUACGCGAG | -3.22 ± 0.24 | -2.58 ± 0.2
AUGUAGCAAUAUUACGUGGA | -1.58 ± 0.22 | -3.15 ± 0.24
AAGAAGCAAUAUUACGUGGU | -3.58 ± 0.14 | -2.23 ± 0.14
GAGAAGCAAUAUUACGAACA | -1.05 ± 0.17 | -1.57 ± 0.2
AUGUAGCAAUAUUACGAGAA | -2.68 ± 0.39 | -1.01 ± 0.22
UCGCAGCAAUAUUACGCCAG | -2.63 ± 0.084 | -1.72 ± 0.1
UUCAAGCAAUAUUACGAUUG | -3.63 ± 0.35 | -2.24 ± 0.27

Sequence | self-splicing fitness (ln) (30 °C) | self-splicing fitness (ln) (37 °C)
CGGGAGCAAUAUUACGAGCU | -3.18 ± 0.41 | -1.89 ± 0.38
GUUGAGCAAUAUUACGAAUG |  | -1.68 ± 0.44
GCAAAGCAAUAUUACGUGUG | -1.99 ± 0.046 | -0.419 ± 0.052
UGAAAGCAAUAUUACGUAUU | -3.21 ± 0.13 | -2.19 ± 0.12
ACGUAGCAAUAUUACGAUUG | -2.78 ± 0.11 | -1.99 ± 0.12
CUAAAGCAAUAUUACGUCUC |  | -1.93 ± 0.46
AGUAAGCAAUAUUACGCACU | -3.07 ± 0.29 | -1.79 ± 0.29
GUUAAGCAAUAUUACGUGUC | -2.09 ± 0.089 | -0.788 ± 0.11
CUUUAGCAAUAUUACGUUAU | -3.64 ± 0.23 | -1.79 ± 0.19
UUGAAGCAAUAUUACGGUCG | 0.0283 ± 0.088 | 0.283 ± 0.1
CUCUAGCAAUAUUACGACCG | -0.158 ± 0.23 | -0.785 ± 0.24
UGGAAGCAAUAUUACGUUCG | 0.201 ± 0.087 | -0.347 ± 0.096
UCUCAGCAAUAUUACGAAUC | -3.99 ± 0.39 | -2.58 ± 0.22
CAUUAGCAAUAUUACGUAUG | -3.57 ± 0.2 | -2.9 ± 0.3
AGAAAGCAAUAUUACGGUAG | -3.84 ± 0.22 | -2.37 ± 0.21
UCACAGCAAUAUUACGUGUG | -4.09 ± 0.15 | -2.13 ± 0.1
AGGGAGCAAUAUUACGCCUA | -1.43 ± 0.26 | -1.68 ± 0.21
AAACAGCAAUAUUACGUUGG | -3.61 ± 0.1 | -2.43 ± 0.11
GUCAAGCAAUAUUACGCUCC | -1.87 ± 0.28 | -1.62 ± 0.29
CACUAGCAAUAUUACGGGAU | -4.27 ± 0.21 | -2.58 ± 0.15
GUCUAGCAAUAUUACGCCCU | -0.702 ± 0.36 | -0.472 ± 0.37
UACGAGCAAUAUUACGGUGU |  | -3.09 ± 0.29
AUGCAGCAAUAUUACGGCCC | -0.0496 ± 0.14 | 0.777 ± 0.19
GUGGAGCAAUAUUACGAAUU |  | -3.14 ± 0.47
CAUCAGCAAUAUUACGCUUU | -2.23 ± 0.097 | -1.34 ± 0.1

Sequence | self-splicing fitness (ln) (30 °C) | self-splicing fitness (ln) (37 °C)
AGCAAGCAAUAUUACGUUUA | -2.1 ± 0.13 | -1.96 ± 0.15
UGUAAGCAAUAUUACGAUGA | -0.986 ± 0.098 | -0.393 ± 0.13
GAUCAGCAAUAUUACGACUA | -0.353 ± 0.4 | -0.914 ± 0.2
ACGUAGCAAUAUUACGGAAC | -2.09 ± 0.24 | -2.14 ± 0.26
UGCUAGCAAUAUUACGUCUU | -1.85 ± 0.093 | -0.906 ± 0.088
GCUAAGCAAUAUUACGAGGC | -1.85 ± 0.21 | -1.6 ± 0.33
AAUGAGCAAUAUUACGUAAA | -3.26 ± 0.18 | -1.1 ± 0.18
UGCGAGCAAUAUUACGACUU | -2.13 ± 0.43 | -1.7 ± 0.41
GGGUAGCAAUAUUACGGCAC | -0.322 ± 0.14 | -0.0485 ± 0.18
UAGAAGCAAUAUUACGGGUA | -1.02 ± 0.16 | -0.329 ± 0.14
AAUGAGCAAUAUUACGGGUA |  | -0.858 ± 0.23
UUCUAGCAAUAUUACGUUGA | -3.03 ± 0.22 | -1.47 ± 0.18
CGUUAGCAAUAUUACGAUCG | -0.9 ± 0.11 | -1.12 ± 0.14
AUACAGCAAUAUUACGUCAU | -1.53 ± 0.084 | -0.888 ± 0.088
AAACAGCAAUAUUACGUUGU | -4.04 ± 0.1 | -2.73 ± 0.1
UUAUAGCAAUAUUACGUAAU | -3.23 ± 0.31 | -2.11 ± 0.36
CGACAGCAAUAUUACGAGUG | -1.06 ± 0.046 | -0.592 ± 0.063
GGCUAGCAAUAUUACGGUGA | -0.0349 ± 0.072 | 0.281 ± 0.086
GAAAAGCAAUAUUACGGCGC | 0.706 ± 0.11 | 0.245 ± 0.18
GUGGAGCAAUAUUACGUUCU | -4.21 ± 0.26 | -2.38 ± 0.18
CGUCAGCAAUAUUACGAUAA | -1.1 ± 0.14 | 0.157 ± 0.12
CGAGAGCAAUAUUACGGCUG | -1.18 ± 0.13 | -1.14 ± 0.17
CAUUAGCAAUAUUACGGUAU |  | -0.876 ± 0.12
